Results: patent US20210188986A1

Tests used:
[1] = molecular target: human OX40L (recombinant, soluble) (human) (UniProt P23510); assay: cell-based or functional assay
[2] = molecular target: human TNFα (recombinant, soluble) (human) (UniProt P01375); assay: cell-based or functional assay
UniProt P01375, sequence (P01375 77-233 limits assumed): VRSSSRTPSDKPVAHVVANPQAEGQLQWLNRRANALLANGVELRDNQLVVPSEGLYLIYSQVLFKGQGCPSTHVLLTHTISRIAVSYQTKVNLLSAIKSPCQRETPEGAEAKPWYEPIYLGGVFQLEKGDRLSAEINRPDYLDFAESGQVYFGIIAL

UniProt P23510, sequence (P23510 51-183 limits assumed): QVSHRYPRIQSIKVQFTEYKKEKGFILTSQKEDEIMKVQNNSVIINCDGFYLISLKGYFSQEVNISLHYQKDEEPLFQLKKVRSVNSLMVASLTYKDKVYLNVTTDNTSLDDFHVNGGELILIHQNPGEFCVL

% inhibition, Jurkat OX40/TNF-NFκB reporter assay, combined hTNFα+OX40L stimulus [1] | IC50 (pM), Jurkat OX40/TNF-NFκB reporter assay, combined hTNFα+OX40L stimulus [1] | % inhibition, Jurkat OX40/TNF-NFκB reporter assay, combined hTNFα+OX40L stimulus [2] | IC50 (pM), Jurkat OX40/TNF-NFκB reporter assay, combined hTNFα+OX40L stimulus [2] | Substance
68% | 3060 pM | – | – | monospecific anti-OX40L VHH ALX-0632
– | – | 66% | 387 pM | monospecific anti-TNFα VHH ATN-103
